This is an account of results in patent publication US20200338209A1, “ANTI-B7-H3 ANTIBODIES AND ANTIBODY DRUG CONJUGATES” (AbbVie Inc., priority 2016, published 2020).

In data set [1] the target is T1, human B7-H3 (4Ig-B7-H3 variant) (Homo sapiens, UniProt Q5ZPR3).
T1 construct: His tag (6xHis) (C)
T1 sequence (Q5ZPR3 with tags, fused parts or gaps): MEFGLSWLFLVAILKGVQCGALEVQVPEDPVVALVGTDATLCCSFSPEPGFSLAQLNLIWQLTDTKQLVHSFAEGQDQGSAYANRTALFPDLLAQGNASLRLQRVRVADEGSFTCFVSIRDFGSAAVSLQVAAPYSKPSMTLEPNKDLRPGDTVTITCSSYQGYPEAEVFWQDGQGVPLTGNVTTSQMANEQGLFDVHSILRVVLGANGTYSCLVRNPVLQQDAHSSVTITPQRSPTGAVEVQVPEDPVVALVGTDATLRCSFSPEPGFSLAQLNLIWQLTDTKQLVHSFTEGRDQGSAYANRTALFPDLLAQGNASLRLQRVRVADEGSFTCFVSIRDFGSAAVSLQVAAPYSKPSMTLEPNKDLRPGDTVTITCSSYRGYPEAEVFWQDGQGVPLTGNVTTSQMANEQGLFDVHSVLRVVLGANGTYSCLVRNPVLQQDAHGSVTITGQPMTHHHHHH
The data set can be described thus: Biacore T200 SPR binding kinetics, mAb capture, soluble ECD of human B7-H3. The conditions noted are these: 1:1 binding model. The protocol:
(§1) The binding affinity of the purified anti-B7-H3 monoclonal antibodies was determined by surface […]. […] The binding kinetics were derived from SPR measurements using a Biacore T200 instrument and a mAb capture approach (as described in the materials and methods below).
(§2) Biacore T200 SPR instruments were used to measure the binding kinetics of human B7-H3 (4Ig-B7-H3 variant) (analyte) binding to various mAbs (ligands). The assay format was Fc-based capture via immobilized anti-mouse (Fc) (Pierce 31170) or immobilized anti-human (Fc) (Pierce 31125). A standard amine coupling protocol was employed to immobilize the capture reagents via primary amines to the carboxy-methyl (CM) dextran surface of CM5 sensorchips (Biacore); capture antibodies were coupled to a level of approximately 5000RU. For binding kinetic measurements the assay buffer was HBS-EP+ (Biacore): 10 mM Hepes, pH7.4, 150 mM NaCl, 3 mM EDTA, 0.05% polysorbate 20. During the assay, all measurements were referenced against the capture surface alone. Each assay cycle consisted of the following steps: 1) Capture of ligand to approximately 50RU; 2) Analyte injection over both reference and test surface, 240 μL at 80 μL/min, after which the dissociation was monitored for 900 seconds at 80 μL/min; 3) Regeneration of capture surface with low pH glycine. For kinetic determinations analyte injections were 3-point, 9-fold dilution series of 900 nM, 100 nM and 11.11 nM, buffer only injections were included for secondary referencing. Data were processed and fit to a 1:1 binding model using Biacore T200 Evaluation Software to determine the binding kinetic rate constants, ka (on-rate) and kd (off-rate), and the equilibrium dissociation constant (affinity, KD).

For a further data set, the system named is cyno B7-H3. The data set is described as follows: Biacore T200 SPR binding kinetics, mAb capture, soluble ECD of cyno B7-H3. On the set-up: species or system cynomolgus monkey. The note with it: 1:1 binding model. The protocol: [The source words this procedure for another species and reports this species under the same test.] as §1, §2
cyno B7-H3, sequence (as listed by the source): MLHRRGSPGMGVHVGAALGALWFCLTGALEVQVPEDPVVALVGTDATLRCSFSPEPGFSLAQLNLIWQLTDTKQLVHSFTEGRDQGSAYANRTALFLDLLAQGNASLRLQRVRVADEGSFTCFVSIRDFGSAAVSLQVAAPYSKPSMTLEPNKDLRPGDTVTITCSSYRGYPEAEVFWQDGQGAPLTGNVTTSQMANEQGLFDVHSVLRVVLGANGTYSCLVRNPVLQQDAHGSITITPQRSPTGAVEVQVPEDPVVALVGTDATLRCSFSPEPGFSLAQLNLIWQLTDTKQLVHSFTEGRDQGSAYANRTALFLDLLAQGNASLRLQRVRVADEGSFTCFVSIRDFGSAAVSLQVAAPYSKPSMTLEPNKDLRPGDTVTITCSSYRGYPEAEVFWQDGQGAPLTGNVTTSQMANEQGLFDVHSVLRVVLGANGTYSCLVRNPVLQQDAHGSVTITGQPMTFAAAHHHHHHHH
(In general: In SPR one partner is held on a chip, and binding of the other changes the refractive index at the surface.)

Data set [2] is described as follows: Percentage aggregation of ADCs by size exclusion chromatography (SEC). The data set is classed as physicochemical. The note with it: humanized Ab3-CZ variants, Table 14. On the procedure:
The DAR and percentage aggregation of ADCs synthesized were determined by LC-MS and size exclusion chromatography (SEC), respectively.
Size exclusion chromatography was performed using a Shodex KW802.5 column in 0.2 M potassium phosphate pH 6.2 with 0.25 mM potassium chloride and 15% IPA at a flow rate of 0.75 ml/min. The peak area absorbance at 280 nm was determined for each of the high molecular weight and monomeric eluents by integration of the area under the curve. The % aggregate fraction of the conjugate sample was determined by dividing the peak area absorbance at 280 nm for the high molecular weight eluent by the sum of the peak area absorbances at […] of the high molecular weight and monomeric eluents multiplied by 100%.
Background: In gel filtration, larger molecules generally elute earlier.

B1: Ab11: murine anti-B7-H3 mAbs; mouse hybridoma derived (antibody, V domains shown)
VH: EVKLVESGGGLVQPGGSLRLSCATSGFTFTNYYMSWVRQPPGKALEWLGFIRNKANDYTTEYSASVKGRFTISRDNSQSILYLQMNTLRAEDSATYYCARESPGNPFAYWGQGTLVTVSA
VL: DIVMTQSPSSLTVTAGEKVTMTCKSSQSLLNSGTQKNFLTWYQQKPGQPPKLLIYWASTRESGVPDRFTGSGSGTDFTLTISSVQAEDLAVYFCQNDYIYPLTFGAGTKLELK
B1: in data set [1], the “ka (1/Ms) huB7-H3” value turned out to be 20000 M⁻¹ s⁻¹ and the “kd (1/s) huB7-H3” value was determined as 0.00089 s⁻¹. In the data set with cyno B7-H3, the “ka (1/Ms) cynoB7-H3” value is 27000 M⁻¹ s⁻¹ and the “kd (1/s) cynoB7-H3” value was determined as 7.2e-05 s⁻¹.

B2: Ab17: mouse hybridoma derived anti-B7-H3 monoclonal antibodies (mAbs) (antibody, V domains shown)
VH: EVKLVESGGGLVQPGGSLKLSCAASGFTFSSYIMSWVRQTPEKRLEWVASIVSSNITYYPDSMKGRFTISRDNARNILYLQMSSLKSEDTAMYYCARSGTRAWFAYWGQGTLVTVSA
VL: DIVLTQSPASLAVSLGQRATISCRASKSVSTSAYSYMHWYQQKPGQPPKLLIYLASNLESGVPARFSGSGSGTDFTLNIHPVEEEDAATYYCQHSRELPYTFGGGTKLEIK
Turning to B2, in data set [1], the “ka (1/Ms) huB7-H3” value worked out at 540000 M⁻¹ s⁻¹ and the “kd (1/s) huB7-H3” value stood at 1.9e-05 s⁻¹. Moreover, in the data set on cyno B7-H3, the “ka (1/Ms) cynoB7-H3” value worked out at 510000 M⁻¹ s⁻¹ and the “kd (1/s) cynoB7-H3” value was 1e-05 s⁻¹.

B3: Ab7: mouse hybridoma derived anti-B7-H3 monoclonal antibodies (mAbs) (antibody, V domains shown)
VH: EVQLVESGENLVKPGGSLKLSCAASGFSFRGYGMSWVRQTPDKRLEWVAAISTGGNYTYYPDSVQGRFTISRDNANNTLYLQMSSLKSEDTAMYYCARRGGNYAGFAYWGQGTLVTVSA
VL: DIQMTQSPASLSVSVGETVTITCRPSENIYSNLAWYQQKQGKSPQLLVYAATNLADGVPSRFSGSGSGTQYSLKINSLQSEDFGTYYCQHFWGTPFTFGSGTKLEIK
Turning to B3, the “KD (M) huB7-H3” value in data set [1] is listed as “little observable binding”. Further, the “KD (M) cynoB7-H3” value on cyno B7-H3 was “little observable binding”.

B4: Ab6: mouse hybridoma derived anti-B7-H3 monoclonal antibodies (mAbs) (antibody, V domains shown)
VH: QVQLQQSGAELMKPGASVKISCKATGYTFSRYWIEWVKQRPGHGLEWIGEILPGSGSTNYNEKFKGKATFTADTSSNTAYMQVSSLTSEDSAVHYCARRGYGYVPYALDYWGQGTSVTVSS
VL: EIQMTQTTSSLSASLGDRVTISCRASQDISNSLNWYQQKPDGTVNLLIYYTSRLYSGVPSRFSGSGSGTDYSLTISNLEQEDIATYFCQQGNTLPYTFGGGTKLEIK
As for B4, in data set [1], the “ka (1/Ms) huB7-H3” value worked out at 12000 M⁻¹ s⁻¹ and the “kd (1/s) huB7-H3” value was 0.01 s⁻¹. Moreover, in the data set on cyno B7-H3, the “ka (1/Ms) cynoB7-H3” value was found to be 28000 M⁻¹ s⁻¹ and the “kd (1/s) cynoB7-H3” value is 0.012 s⁻¹.

B5: huAb3v4-CZ (conjugate)
VH: EVQLVQSGAEVKKPGSSVKVSCKASGYTFSSYWMHWVRQAPGQGLEWMGLIHPDSGSTNYNEMFKNRVTITADKSTSTAYMELSSLRSEDTAVYYCARGGRLYFDYWGQGTTVTVSS
VL: DVVMTQSPLSLPVTPGEPASISCRSSQSLVHSNGDTYLRWYLQKPGQSPQLLIYKVSNRFSGVPDRFSGSGSGTDFTLKISRVEAEDVGVYYCSQSTHVPYTFGGGTKVEIK
modifications: drug conjugate CZ; Synthetic huAb3VH.1, huAb3v1, and huAb3v4 VH amino acid sequence; Synthetic huAb3VL.1b, huAb3v4, huAb3v5, and huAb3v6 VL amino acid sequence
Take B5: the “% agg by SEC” value in data set [2] is on record as 3.1%.
